In publication PMC5610175, “The Kinetochore Receptor for the Cohesin Loading Complex” (Cell, 2017):
Non-standard residues stand in square brackets, D forms with d. No end group written: not given here. pT = C[C@@H](OP(=O)(O)O)[C@H](N)C(=O)O; pS = N[C@@H](COP(=O)(O)O)C(=O)O

Tests used:
Scc2^1-181-Scc4 (WT) = molecular target: T1, Scc2^1-181-Scc4 (WT) (Saccharomyces cerevisiae, UniProt P40090+Q04002); assay: Peptide binding to Scc2^1-181-Scc4 WT by biolayer interferometry; design: species or system budding yeast; conditions: Scc2^1–181-Scc4 WT, pH 7.5
T1 construct: made in house; host or cells: bacteria (E. coli is stated only for the Ctf19 complex proteins)
T1 sequence (P40090 1-624): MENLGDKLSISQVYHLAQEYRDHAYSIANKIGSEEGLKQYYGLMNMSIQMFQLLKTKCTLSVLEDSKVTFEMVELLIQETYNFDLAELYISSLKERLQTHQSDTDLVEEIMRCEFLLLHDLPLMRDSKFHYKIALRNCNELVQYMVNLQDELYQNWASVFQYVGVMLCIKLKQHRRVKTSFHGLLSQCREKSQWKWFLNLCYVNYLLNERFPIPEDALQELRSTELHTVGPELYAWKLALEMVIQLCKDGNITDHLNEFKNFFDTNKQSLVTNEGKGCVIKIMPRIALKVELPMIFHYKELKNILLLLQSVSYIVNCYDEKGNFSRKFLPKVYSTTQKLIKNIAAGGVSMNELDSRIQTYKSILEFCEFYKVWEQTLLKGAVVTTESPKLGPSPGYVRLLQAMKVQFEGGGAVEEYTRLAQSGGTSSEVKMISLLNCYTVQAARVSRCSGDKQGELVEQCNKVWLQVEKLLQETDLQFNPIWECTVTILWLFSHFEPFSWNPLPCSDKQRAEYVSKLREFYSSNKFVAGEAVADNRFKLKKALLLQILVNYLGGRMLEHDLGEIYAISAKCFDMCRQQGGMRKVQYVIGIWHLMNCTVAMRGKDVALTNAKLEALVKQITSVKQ
T1 sequence (Q04002 1-181 partner limits assumed): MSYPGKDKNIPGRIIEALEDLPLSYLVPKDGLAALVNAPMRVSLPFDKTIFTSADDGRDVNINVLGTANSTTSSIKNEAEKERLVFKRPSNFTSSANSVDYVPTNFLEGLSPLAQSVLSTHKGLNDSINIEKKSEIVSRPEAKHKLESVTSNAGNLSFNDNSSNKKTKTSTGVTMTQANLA
Method: Figure S5 Synthetic Ctf19^1–11 binds Scc2^1–181-Scc4, and Binding Requires Phosphorylation of Ctf19 Residue T4 or S5, Related to Figure 6 Experiments were carried out as in Figure 6B (error bars – +/−SD for three independent experiments, obscured by data points where not visible). m3 refers to immobilized Scc2^1-181-Scc4^m3. Ctf19 peptides and Scc2^1-181-Scc4 complexes used are listed in the table along with measured dissociation constants (Kd; SE – standard error for best-fit binding curve; single site, specific binding; Phos. – phosphorylated residues). TEXT PRINTED IN THE PICTURE: Ctf19 residues 1-11; Phos. none: Kd(±SE)(μM): n.d. (Scc2^1-181-Scc4: WT) | Ctf19 residues 1-11; Phos. pT4: Kd(±SE)(μM): 1757(6000+) (Scc2^1-181-Scc4: WT) | Ctf19 residues 1-11; Phos. pS5: Kd(±SE)(μM): 122(66) (Scc2^1-181-Scc4: WT); Kd(±SE)(μM): n.d. (Scc2^1-181-Scc4: m3) | Ctf19 residues 1-6; Phos. pT4;pS5: Kd(±SE)(μM): 22.6(3.0) (Scc2^1-181-Scc4: WT)
We used biolayer interferometry (ForteBio) to quantify the interaction between Scc2^1-181–Scc4 and synthetic peptides derived from the N-terminal region of Ctf19 (Tufts University Core Facility, Boston). For all steps, we used octet buffer (40mM HEPES, pH 7.5; 200mM NaCl; 1mM DTT) and low-volume 96-well opaque black plates. […] This step was allowed to reach saturation before a final incubation in octet buffer.
To derive binding curves, we first applied a linear correction so that all association steps began at zero response units. We then performed a linear drift correction by subtracting the signal for Scc2^1-181-Scc4 incubated in buffer alone during the association step (no peptide, linear subtraction for each time point, independent control for each experiment). We then applied a loading factor to correct for the Scc2^1-181-Scc4 immobilization efficiency for each well. From these normalized association curves, we extracted maximum responses for each well by averaging the signal across the final ten seconds of the association step. We performed these operations for three independent experiments, performed with new tips and samples, for each data point. […] Data points represent mean maximum responses, and error bars show the standard deviation for the three experiments. Fits were determined using GraphPad Prism software assuming a single specific binding site.

[1] = molecular target: T2, Scc2^1–181-Scc4 complex, wild type, tagged (6His-FLAG-Scc2 1-181; 6His-Scc4) (S. cerevisiae, UniProt Q04002 1-181; P40090 1-624); assay: BLI; phosphorylated T4; SE 6000+
T2 chain 1: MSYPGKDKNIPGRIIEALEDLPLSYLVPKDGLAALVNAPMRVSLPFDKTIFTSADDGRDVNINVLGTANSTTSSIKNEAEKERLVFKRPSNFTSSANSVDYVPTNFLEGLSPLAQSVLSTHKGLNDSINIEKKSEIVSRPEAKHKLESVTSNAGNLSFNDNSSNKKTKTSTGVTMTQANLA
T2 chain 2: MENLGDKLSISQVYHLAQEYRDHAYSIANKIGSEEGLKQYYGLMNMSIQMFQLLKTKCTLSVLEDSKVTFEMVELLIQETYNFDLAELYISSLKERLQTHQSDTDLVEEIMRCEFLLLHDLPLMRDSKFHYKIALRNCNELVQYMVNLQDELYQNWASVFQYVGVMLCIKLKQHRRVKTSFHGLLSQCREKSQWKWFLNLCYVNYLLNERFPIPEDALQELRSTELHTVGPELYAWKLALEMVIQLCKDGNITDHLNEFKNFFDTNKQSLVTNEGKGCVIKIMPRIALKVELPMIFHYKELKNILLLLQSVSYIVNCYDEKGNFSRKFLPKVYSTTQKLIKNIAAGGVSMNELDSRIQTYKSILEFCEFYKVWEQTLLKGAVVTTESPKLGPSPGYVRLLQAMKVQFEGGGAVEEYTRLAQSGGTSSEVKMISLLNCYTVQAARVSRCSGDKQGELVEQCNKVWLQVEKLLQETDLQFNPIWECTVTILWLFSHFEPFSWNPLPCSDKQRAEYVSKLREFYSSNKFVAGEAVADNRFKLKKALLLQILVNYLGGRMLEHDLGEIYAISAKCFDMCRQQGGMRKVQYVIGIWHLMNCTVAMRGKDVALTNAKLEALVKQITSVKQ

[2] = molecular target: T2, Scc2^1–181-Scc4 complex, wild type, …; assay: BLI; phosphorylated S5
[3] = molecular target: T3, Scc4, as in the crystallised Scc2^1–181-Scc4 complex (S. cerevisiae, UniProt P40090 1-624); assay: crystal structure; TEV-cleaved Scc2 1-181-Scc4 mixed with Ctf19 1-6 diphosphorylated peptide at 1:1.8; 8% PEG 4,000, 80mM PIPES pH 6, 18°C; space group P6_2, 3.19Å; conditions: both partners purified
T3 construct: Scc4, budding yeast cohesin loader subunit; Single chain of m8, for the pairs within the structure; not shown: 6His, N-terminal, cleaved
T3 sequence: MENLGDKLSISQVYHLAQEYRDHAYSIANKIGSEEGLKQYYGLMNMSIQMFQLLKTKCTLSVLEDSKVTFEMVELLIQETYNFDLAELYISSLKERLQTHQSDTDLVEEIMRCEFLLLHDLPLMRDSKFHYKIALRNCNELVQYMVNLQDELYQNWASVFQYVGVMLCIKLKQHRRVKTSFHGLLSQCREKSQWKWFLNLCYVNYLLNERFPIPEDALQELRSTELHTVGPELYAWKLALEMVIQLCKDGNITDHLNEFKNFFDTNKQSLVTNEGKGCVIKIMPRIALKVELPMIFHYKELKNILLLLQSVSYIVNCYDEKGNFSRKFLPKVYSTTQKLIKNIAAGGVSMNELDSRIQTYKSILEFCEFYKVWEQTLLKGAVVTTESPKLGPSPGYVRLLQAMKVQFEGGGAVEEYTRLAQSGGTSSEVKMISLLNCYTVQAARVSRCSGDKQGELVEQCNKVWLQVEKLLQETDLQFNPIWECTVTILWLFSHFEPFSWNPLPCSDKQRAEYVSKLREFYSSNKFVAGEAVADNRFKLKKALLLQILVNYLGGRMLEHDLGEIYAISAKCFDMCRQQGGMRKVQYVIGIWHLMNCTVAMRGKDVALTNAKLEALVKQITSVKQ

[4] = molecular target: T4, Scc2^1–181-Scc4 complex, wild type, tagged (6His-FLAG-Scc2 1-181; 6His-Scc4) (S. cerevisiae, UniProt Q04002 1-181; P40090 1-624); assay: BLI; ForteBio; 6His-tagged Scc2 1-181-Scc4 captured on NiNTA tips, Ctf19 peptides in solution at varying concentrations; 40mM HEPES pH 7.5, 200mM NaCl, 1mM DTT; steady-state responses, single specific site fit (Prism); three independent experiments; conditions: both partners purified
T4 construct: Scc4, budding yeast cohesin loader subunit; source: recombinant, expressed in bacteria, purified; not shown: 6His, N-terminal, kept; FLAG, N-terminal, kept
T4 sequence 1: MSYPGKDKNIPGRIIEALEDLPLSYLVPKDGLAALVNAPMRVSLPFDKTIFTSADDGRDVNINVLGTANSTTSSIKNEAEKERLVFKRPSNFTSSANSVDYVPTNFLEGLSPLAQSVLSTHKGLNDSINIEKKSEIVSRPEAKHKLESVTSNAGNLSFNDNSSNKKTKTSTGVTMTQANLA
T4 sequence 2: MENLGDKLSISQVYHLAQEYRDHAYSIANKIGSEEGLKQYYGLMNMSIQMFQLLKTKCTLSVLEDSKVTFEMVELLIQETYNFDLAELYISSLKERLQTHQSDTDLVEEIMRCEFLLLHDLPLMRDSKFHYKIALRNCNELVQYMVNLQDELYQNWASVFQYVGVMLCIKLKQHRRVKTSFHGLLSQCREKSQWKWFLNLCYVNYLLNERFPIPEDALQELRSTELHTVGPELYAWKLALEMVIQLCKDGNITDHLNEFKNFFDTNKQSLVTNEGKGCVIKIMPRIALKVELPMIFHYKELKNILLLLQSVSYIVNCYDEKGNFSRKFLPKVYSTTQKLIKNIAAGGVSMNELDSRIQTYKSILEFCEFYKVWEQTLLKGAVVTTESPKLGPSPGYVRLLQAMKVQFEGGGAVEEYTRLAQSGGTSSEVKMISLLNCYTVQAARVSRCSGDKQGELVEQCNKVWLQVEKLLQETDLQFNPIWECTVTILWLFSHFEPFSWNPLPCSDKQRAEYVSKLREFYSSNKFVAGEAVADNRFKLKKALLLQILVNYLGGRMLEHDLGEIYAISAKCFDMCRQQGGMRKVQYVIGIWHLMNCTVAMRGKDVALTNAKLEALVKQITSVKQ

## MDFpTSDTTNSH [Ctf19 residues 1-11; Phos. pT4, synthetic Ctf19^1–11 peptide phosphorylated at T4]
Scc2^1-181-Scc4 (WT)
  binding to Scc2^1–181-Scc4 in vitro (in words): detectable binding

## MDF[pT]SDTTNSH [Synthetic Ctf19^1–11 peptide phosphorylated at T4 (MDFpTSDTTNSH)]
[1]
  Kd: 1760 µM

## MDFT[pS]DTTNSH [Synthetic Ctf19^1–11 peptide phosphorylated at S5 (MDFTpSDTTNSH)]
[2]
  Kd: 122 µM

B1: Scc2^1–181, as in the crystallised Scc2^1–181-Scc4 complex (domain or fragment, S. cerevisiae, UniProt Q04002 1-181, looked up)
chain: MSYPGKDKNIPGRIIEALEDLPLSYLVPKDGLAALVNAPMRVSLPFDKTIFTSADDGRDVNINVLGTANSTTSSIKNEAEKERLVFKRPSNFTSSANSVDYVPTNFLEGLSPLAQSVLSTHKGLNDSINIEKKSEIVSRPEAKHKLESVTSNAGNLSFNDNSSNKKTKTSTGVTMTQANLA
notes: Single chain of m8, for the pairs within the structure; also called Scc2n; source: recombinant, purified with Scc4, tags cleaved with TEV protease; not shown: 6His, N-terminal, cleaved
[3]
  binding result: binds

B2: Synthetic Ctf19^1–6 peptide phosphorylated at T4 and S5 (MDFpTpSD) (peptide)
peptide: MDF[pT][pS]D
notes: Ctf19 residues 1-6, budding yeast; also called phosphorylated Ctf19^1–6; Ctf19^1-6 diphosphorylated peptide; source: synthetic peptide (Tufts Univ. Core Facility)
[4]
  Kd: ~23 µM
